B1: ZNF449 (parent)
chain: HTGERPYECTVCKKRFTRRSHLIG
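Note: lentivirally expressed fusions sorted by FACS into six bins by GFP to DsRed ratio, PSI derived from sequencing read proportions per bin multiplied by bin number.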

This data set covers variants of B1. Nature of the data set: protein stability index of a GFP-peptide fusion (GPS, HEK-293T) (PSI 1-6); higher = more stable. To be noted: c terminus: a fixed tail appended.
On to HTGERPYECTVCKKRFTRRSVLIG [H21V], for which the protein stability index was found to be 2.97.

As for HTGERPYECTVCKKRFTRRSCLIG [H21C], the protein stability index worked out at 2.1.

Turning to HTGERPYECTVCKKRFTRRSDLIG [H21D], the protein stability index is 2.27. Under HTGERPYECTVCKKRFTRRSRLIG [H21R] stands 2.37; under HTGERPYECTVCKKRFTRRSELIG [H21E], 2.31; under HTGERPYECTVCKKRFTRRSYLIG [H21Y], 2.35. For HTGERPYECTVCKKRFTRRSNLIG [H21N], the protein stability index was 2.39. The value for HTGERPYECTVCKKRFTRRSSLIG [H21S] was 2.93; that for HTGERPYECTVCKKRFTRRSALIG [H21A] was 2.22; that for HTGERPYECTVCKKRFTRRSQLIG [H21Q] was 1.82. Under HTGERPYECTVCKKRFTRRSLLIG [H21L] stands 3.45.

Take HTGERPYECTVCKKRFTRRSPLIG [H21P]: the protein stability index is 3.26. Under HTGERPYECTVCKKRFTRRSILIG [H21I] stands 1.56. Regarding HTGERPYECTVCKKRFTRRSWLIG [H21W], the protein stability index was 2.78.

HTGERPYECTVCKKRFTRRSFLIG [H21F]: the protein stability index turned out to be 1.83. The value for HTGERPYECTVCKKRFTRRSTLIG [H21T] was 2.83; that for HTGERPYECTVCKKRGTRRSHLIG [F16G] was 2.82. Under HTGERPYECTVCKKRITRRSHLIG [F16I] stands 1.71; under HTGERPYECTVCKKRWTRRSHLIG [F16W], 1.96. The value for HTGERPYECTVCKKRRTRRSHLIG [F16R] was 2.89.

For HTGERPYECTVCKKRHTRRSHLIG [F16H], the protein stability index was determined as 3.32. Consider HTGERPYECTVCKKRQTRRSHLIG [F16Q], for which the protein stability index was 2.4. The value for HTGERPYECTVCKKRLTRRSHLIG [F16L] was 1.67; that for HTGERPYECTVCKKRDTRRSHLIG [F16D] was 3. Under HTGERPYECTVCKKRNTRRSHLIG [F16N] stands 2.72.

In the case of HTGERPYECTVCKKRATRRSHLIG [F16A], the protein stability index was 2.1.

HTGERPYECTVCKKRMTRRSHLIG [F16M]: the protein stability index turned out to be 1.89. With HTGERPYECTVCKKRTTRRSHLIG [F16T], the protein stability index came out at 2.

Regarding HTGERPYECTVCKKRCTRRSHLIG [F16C], the protein stability index was found to be 2.42. On to HTGERPYECTVCKKRYTRRSHLIG [F16Y], for which the protein stability index came out at 1.99. For HTGERPYECTVCKKRSTRRSHLIG [F16S], the protein stability index came out at 2.51.

Regarding HTGERPYECTVCKKRPTRRSHLIG [F16P], the protein stability index came out at 3.2.

With HTGERPYECTVCKKMFTRRSHLIG [R15M], the protein stability index was found to be 2.51. HTGERPYECTVCKKYFTRRSHLIG [R15Y]: the protein stability index is 1.09. Under HTGERPYECTVCKKQFTRRSHLIG [R15Q] stands 1.79. Under HTGERPYECTVCKKKFTRRSHLIG [R15K] stands 2.52. On to HTGERPYECTVCKKEFTRRSHLIG [R15E], for which the protein stability index came out at 2.04. The value for HTGERPYECTVCKKHFTRRSHLIG [R15H] was 3.03; that for HTGERPYECTVCKKAFTRRSHLIG [R15A] was 1.99. HTGERPYECTVCKKDFTRRSHLIG [R15D]: the protein stability index is 2.09. The value for HTGERPYECTVCKKIFTRRSHLIG [R15I] was 2.1. Under HTGERPYECTVCKKFFTRRSHLIG [R15F] stands 1.72; under HTGERPYECTVCKKCFTRRSHLIG [R15C], 2.23. Under HTGERPYECTVCKKNFTRRSHLIG [R15N] stands 2.58; under HTGERPYECTVCKKTFTRRSHLIG [R15T], 2.52; under HTGERPYECTVCKKVFTRRSHLIG [R15V], 2.16. On to HTGERPYECTVCKKLFTRRSHLIG [R15L], for which the protein stability index came to 1.39.

On to HTGERPYECTVCKKSFTRRSHLIG [R15S], for which the protein stability index was determined as 1.52.

Regarding HTGERPYECTVCKKWFTRRSHLIG [R15W], the protein stability index was 2.56. The value for HTGERPYECTVCKMRFTRRSHLIG [K14M] was 1.61. The value for HTGERPYECTVCKSRFTRRSHLIG [K14S] was 2.27.

With HTGERPYECTVCKCRFTRRSHLIG [K14C], the protein stability index turned out to be 2.01. As to HTGERPYECTVCKQRFTRRSHLIG [K14Q], the protein stability index worked out at 1.75.

Consider HTGERPYECTVCKGRFTRRSHLIG [K14G], for which the protein stability index amounted to 1.44. Under HTGERPYECTVCKIRFTRRSHLIG [K14I] stands 2.26; under HTGERPYECTVCKWRFTRRSHLIG [K14W], 1.49. The value for HTGERPYECTVCKERFTRRSHLIG [K14E] was 1.73; that for HTGERPYECTVCKLRFTRRSHLIG [K14L] was 1.66; that for HTGERPYECTVCKPRFTRRSHLIG [K14P] was 1.97.

Take HTGERPYECTVCKDRFTRRSHLIG [K14D]: the protein stability index stood at 2.29. Consider HTGERPYECTVCKRRFTRRSHLIG [K14R], for which the protein stability index was 1.53. With HTGERPYECTVCKVRFTRRSHLIG [K14V], the protein stability index stood at 2.09. Under HTGERPYECTVCKHRFTRRSHLIG [K14H] stands 2.58. On to HTGERPYECTVCKARFTRRSHLIG [K14A], for which the protein stability index was found to be 1.89.

As to HTGERPYECTVCMKRFTRRSHLIG [K13M], the protein stability index turned out to be 1.62. Under HTGERPYECTVCWKRFTRRSHLIG [K13W] stands 2.62; under HTGERPYECTVCYKRFTRRSHLIG [K13Y], 2.47. On to HTGERPYECTVCRKRFTRRSHLIG [K13R], for which the protein stability index is 2.31.

As for HTGERPYECTVCVKRFTRRSHLIG [K13V], the protein stability index stood at 3.25. Consider HTGERPYECTVCLKRFTRRSHLIG [K13L], for which the protein stability index stood at 2.09. Under HTGERPYECTVCTKRFTRRSHLIG [K13T] stands 2.33; under HTGERPYECTVCNKRFTRRSHLIG [K13N], 1.78; under HTGERPYECTVCQKRFTRRSHLIG [K13Q], 2. The value for HTGERPYECTVCPKRFTRRSHLIG [K13P] was 2.86; that for HTGERPYECTVCKKRFTWRSHLIG [R18W] was 2.33. Under HTGERPYECTVCKKRFTPRSHLIG [R18P] stands 1.91; under HTGERPYECTVCKKRFTTRSHLIG [R18T], 1.97. On to HTGERPYECTVCKKRFTARSHLIG [R18A], for which the protein stability index was 2.13. The value for HTGERPYECTVCKKRFTGRSHLIG [R18G] was 2.12.

For the variant HTGERPYECTVCKKRFTCRSHLIG [R18C], the protein stability index was determined as 2.97.

With HTGERPYECTVCKKRFTVRSHLIG [R18V], the protein stability index amounted to 1.59.

Take HTGERPYECTVCKKRFTQRSHLIG [R18Q]: the protein stability index is 1.81. For HTGERPYECTVCKKRFTDRSHLIG [R18D], the protein stability index amounted to 2.88.

On to HTGERPYECTVCKKRFTIRSHLIG [R18I], for which the protein stability index came to 2.7.

Regarding HTGERPYECTVCKKRFTNRSHLIG [R18N], the protein stability index is 1.62.

Turning to HTGERPYECTVCKKRFTHRSHLIG [R18H], the protein stability index is 1.76. Turning to HTGERPYECTVCKKRFTSRSHLIG [R18S], the protein stability index was 2.5. Turning to HTGERPYECTVCKKRFTLRSHLIG [R18L], the protein stability index is 1.74.

Regarding HTGERPYECTVCKKRFTMRSHLIG [R18M], the protein stability index is 1.5. Consider HTGERPYECTVCKKRFTKRSHLIG [R18K], for which the protein stability index was 1.97. With HTGERPYECTVCKKRFTFRSHLIG [R18F], the protein stability index came to 2.18. The value for HTGERPYECTVCKKRFTRRSHLYG [I23Y] was 2.42; that for HTGERPYECTVCKKRFTRRSHLDG [I23D] was 2.8; that for HTGERPYECTVCKKRFTRRSHLAG [I23A] was 2.64.
